Drawing on PMC4338599, this text covers binding for one sequence.

Common to all, as to test: SPR
A general note: Surface plasmon resonance follows binding to a sensor surface in real time, without labels.

The target of data set [1] is Ku70-Ku80 heterodimer (Ku) (UniProt P12956+P13010).
Data set [2] addresses Ku70-Ku80 heterodimer (Ku);PAXX V199A/F201A V199A;F201A (human?;human) (UniProt P12956+P13010+Q9BUH6).
Data set [3] has as its target Ku70-Ku80 heterodimer (Ku);PAXX WT (PAXX1-204, C9orf142) (human?;human) (UniProt P12956+P13010+Q9BUH6).

Ku70-Ku80 heterodimer (Ku);PAXX WT (PAXX1-204, C9orf142) (human?;human), sequence (P12956 whole entry, chain 1 of 3): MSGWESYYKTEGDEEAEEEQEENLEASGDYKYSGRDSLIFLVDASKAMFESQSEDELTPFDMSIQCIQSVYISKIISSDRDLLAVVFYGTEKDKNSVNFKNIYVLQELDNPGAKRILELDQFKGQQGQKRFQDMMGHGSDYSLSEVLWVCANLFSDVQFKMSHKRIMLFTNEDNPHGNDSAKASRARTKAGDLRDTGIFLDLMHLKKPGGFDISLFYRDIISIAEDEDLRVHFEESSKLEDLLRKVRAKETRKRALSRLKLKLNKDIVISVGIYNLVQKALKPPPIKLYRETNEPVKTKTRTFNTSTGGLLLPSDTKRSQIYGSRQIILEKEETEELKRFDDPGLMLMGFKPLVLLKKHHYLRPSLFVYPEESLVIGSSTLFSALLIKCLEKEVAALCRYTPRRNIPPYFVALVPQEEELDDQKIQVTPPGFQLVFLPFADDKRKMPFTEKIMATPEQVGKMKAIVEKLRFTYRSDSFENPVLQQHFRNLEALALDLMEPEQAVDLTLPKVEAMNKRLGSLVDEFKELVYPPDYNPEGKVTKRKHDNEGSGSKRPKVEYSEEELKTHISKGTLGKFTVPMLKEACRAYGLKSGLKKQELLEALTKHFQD
Ku70-Ku80 heterodimer (Ku);PAXX WT (PAXX1-204, C9orf142) (human?;human), sequence (P13010 whole entry, chain 2 of 3): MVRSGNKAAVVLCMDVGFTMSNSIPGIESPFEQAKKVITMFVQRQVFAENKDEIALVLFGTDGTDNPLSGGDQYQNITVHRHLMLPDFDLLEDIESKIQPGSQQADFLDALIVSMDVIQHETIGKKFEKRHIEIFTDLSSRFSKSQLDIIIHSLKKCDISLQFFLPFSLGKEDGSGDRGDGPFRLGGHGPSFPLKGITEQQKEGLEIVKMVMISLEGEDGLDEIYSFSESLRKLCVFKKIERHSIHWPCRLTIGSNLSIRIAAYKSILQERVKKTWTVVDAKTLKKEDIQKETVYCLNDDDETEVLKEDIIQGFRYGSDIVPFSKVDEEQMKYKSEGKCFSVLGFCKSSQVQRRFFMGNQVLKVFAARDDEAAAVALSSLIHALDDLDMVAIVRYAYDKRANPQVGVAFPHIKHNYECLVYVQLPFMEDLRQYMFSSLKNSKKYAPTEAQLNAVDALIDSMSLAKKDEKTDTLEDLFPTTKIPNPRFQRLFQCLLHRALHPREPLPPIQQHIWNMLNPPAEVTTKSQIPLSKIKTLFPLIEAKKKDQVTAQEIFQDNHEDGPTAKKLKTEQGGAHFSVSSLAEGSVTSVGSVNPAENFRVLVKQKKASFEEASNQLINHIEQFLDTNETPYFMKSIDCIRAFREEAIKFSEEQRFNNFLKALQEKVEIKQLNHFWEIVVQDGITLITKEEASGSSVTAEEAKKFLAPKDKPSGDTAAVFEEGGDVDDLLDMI
Ku70-Ku80 heterodimer (Ku);PAXX WT (PAXX1-204, C9orf142) (human?;human), sequence (Q9BUH6 whole entry, chain 3 of 3): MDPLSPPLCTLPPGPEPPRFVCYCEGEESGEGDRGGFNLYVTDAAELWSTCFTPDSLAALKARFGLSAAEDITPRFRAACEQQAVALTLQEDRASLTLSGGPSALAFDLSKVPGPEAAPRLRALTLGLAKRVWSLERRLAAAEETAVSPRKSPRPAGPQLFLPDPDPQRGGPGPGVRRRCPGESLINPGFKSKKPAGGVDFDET
Ku70-Ku80 heterodimer (Ku);PAXX V199A/F201A V199A;F201A (human?;human), sequence (P12956 whole entry, chain 1 of 3): as the sequence (P12956 whole entry, chain 1 of 3) above
Ku70-Ku80 heterodimer (Ku);PAXX V199A/F201A V199A;F201A (human?;human), sequence (P13010 whole entry, chain 2 of 3): as the sequence (P13010 whole entry, chain 2 of 3) above
Ku70-Ku80 heterodimer (Ku);PAXX V199A/F201A V199A;F201A (human?;human), sequence (Q9BUH6 whole entry V199A/F201A, chain 3 of 3): as the sequence (Q9BUH6 whole entry, chain 3 of 3) above, with V199A, F201A counted along it
Ku70-Ku80 heterodimer (Ku), sequence (P12956 whole entry, chain 1 of 2): as the sequence (P12956 whole entry, chain 1 of 3) above
Ku70-Ku80 heterodimer (Ku), sequence (P13010 whole entry, chain 2 of 2): as the sequence (P13010 whole entry, chain 2 of 3) above

For “ATATATCCATGGCTGCCTCACAAACTTCACAAACTGTTGCATCTCACGTTCCTTTTGCAGATTTGTGTTCAACTTTAGAACGAATACAGAAAAGTAAAGGACGTGCA (double strand) [107-bp biotinylated LIG4 PCR fragment]”, the binding result is given as “binds” in data set [1], “no binding” in data set [2] and “binds” in data set [3].
